Reference: PMC8660799, “Cryo-EM reveals unique structural features of the FhuCDB Escherichia coli ferrichrome importer” (Communications Biology, 2021)

What was measured:
[1] = molecular target: T1, FhuCB with FhuB Q507A, T510A (Escherichia coli, UniProt P07821 1-265; P06972 1-660, Q507A | T510A, red-tris-NTA 2nd generation dye on the His-tag); experiment: MST; 40 nM FhuCB (wild type or FhuB mutant) in detergent, His-tag labelled with red-tris-NTA 2nd generation dye; serial dilution of 1.6 μM FhuD with substrate ferrichrome; with ATP-Mg; Monolith NT.115pico, 20% LED power, medium MST power; details: both partners purified
T1 construct: FhuC, ATPase subunit, Escherichia coli; as in Dm2; FhuB, membrane subunit, Escherichia coli, 660 residues; Mutant made on the FhuCB-pET15b construct by direct mutagenesis; also called Q507T510; source: E. coli BL21(DE3) C43, purified (TALON, Superose 6 gel filtration) in LMNG; not shown: His-tag, N-terminal, kept; copies: 2 + 1
T1 sequence (looked up) 1: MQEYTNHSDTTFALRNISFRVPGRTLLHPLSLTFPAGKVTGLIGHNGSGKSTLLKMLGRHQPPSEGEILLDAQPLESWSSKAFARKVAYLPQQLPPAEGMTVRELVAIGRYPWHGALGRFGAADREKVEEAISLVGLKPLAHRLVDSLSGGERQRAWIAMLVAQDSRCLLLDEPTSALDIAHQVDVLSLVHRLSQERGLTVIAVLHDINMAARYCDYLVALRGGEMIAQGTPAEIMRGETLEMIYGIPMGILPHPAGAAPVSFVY
T1 sequence (looked up) 2: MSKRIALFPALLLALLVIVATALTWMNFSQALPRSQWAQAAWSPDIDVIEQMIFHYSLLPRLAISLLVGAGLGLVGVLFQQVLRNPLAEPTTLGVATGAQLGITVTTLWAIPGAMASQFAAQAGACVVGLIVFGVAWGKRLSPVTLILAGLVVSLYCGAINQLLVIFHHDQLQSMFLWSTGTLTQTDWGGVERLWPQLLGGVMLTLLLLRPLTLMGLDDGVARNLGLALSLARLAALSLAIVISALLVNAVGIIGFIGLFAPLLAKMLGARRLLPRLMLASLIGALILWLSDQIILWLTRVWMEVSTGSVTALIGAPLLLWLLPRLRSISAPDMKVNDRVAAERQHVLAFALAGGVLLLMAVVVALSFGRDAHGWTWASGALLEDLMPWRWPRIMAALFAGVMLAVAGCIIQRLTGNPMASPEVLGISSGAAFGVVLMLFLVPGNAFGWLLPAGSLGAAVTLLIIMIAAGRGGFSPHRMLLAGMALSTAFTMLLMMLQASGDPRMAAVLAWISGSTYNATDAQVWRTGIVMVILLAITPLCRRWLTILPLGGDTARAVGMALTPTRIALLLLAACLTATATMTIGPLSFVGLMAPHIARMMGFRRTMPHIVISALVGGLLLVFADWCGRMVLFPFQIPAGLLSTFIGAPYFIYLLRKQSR

[2] = molecular target: T2, FhuCB with FhuB S57A (Escherichia coli, UniProt P07821 1-265; P06972 1-660, S57A, red-tris-NTA 2nd generation dye on the His-tag); experiment: as above; details: both partners purified
T2 construct: FhuC, ATPase subunit, Escherichia coli; as in Dm2; FhuB, membrane subunit, Escherichia coli, 660 residues; Mutant made on the FhuCB-pET15b construct by direct mutagenesis; source: E. coli BL21(DE3) C43, purified (TALON, Superose 6 gel filtration) in LMNG; not shown: His-tag, N-terminal, kept; copies: 2 + 1
T2 sequence (looked up) 1: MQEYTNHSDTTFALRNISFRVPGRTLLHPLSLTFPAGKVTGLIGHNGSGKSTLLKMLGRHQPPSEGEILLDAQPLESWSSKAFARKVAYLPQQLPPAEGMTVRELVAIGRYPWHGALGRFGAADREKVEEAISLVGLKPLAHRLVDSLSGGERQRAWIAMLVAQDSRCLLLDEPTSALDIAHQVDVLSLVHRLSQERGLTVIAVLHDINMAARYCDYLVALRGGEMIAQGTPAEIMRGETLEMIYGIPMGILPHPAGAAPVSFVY
T2 sequence (looked up) 2: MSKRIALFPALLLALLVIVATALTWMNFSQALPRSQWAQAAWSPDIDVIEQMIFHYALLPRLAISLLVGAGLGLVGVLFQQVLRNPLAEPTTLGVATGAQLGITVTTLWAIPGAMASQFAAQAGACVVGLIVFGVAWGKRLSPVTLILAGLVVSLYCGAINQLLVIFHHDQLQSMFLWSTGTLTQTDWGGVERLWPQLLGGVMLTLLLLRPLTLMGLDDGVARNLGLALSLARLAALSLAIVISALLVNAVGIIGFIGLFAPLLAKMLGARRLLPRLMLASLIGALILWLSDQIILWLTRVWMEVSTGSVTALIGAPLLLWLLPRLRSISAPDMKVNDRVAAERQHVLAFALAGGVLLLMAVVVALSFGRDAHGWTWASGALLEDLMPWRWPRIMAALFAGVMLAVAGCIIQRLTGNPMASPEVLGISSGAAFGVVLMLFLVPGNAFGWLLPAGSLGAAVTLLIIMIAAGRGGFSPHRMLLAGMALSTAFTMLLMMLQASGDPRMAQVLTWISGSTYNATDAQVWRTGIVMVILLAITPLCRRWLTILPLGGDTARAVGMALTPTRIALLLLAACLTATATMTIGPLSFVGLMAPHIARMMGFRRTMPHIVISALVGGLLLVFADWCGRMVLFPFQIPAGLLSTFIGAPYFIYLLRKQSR

Kd [1]: 0.0792 µM
Kd [2]: 0.0884 µM
B1: FhuD (natural protein, Escherichia coli)
chain: AAIDPNRIVALEWLPVELLLALGIVPYGVADTINYRLWVSEPPLPDSVIDVGLRTEPNLELLTEMKPSFMVWSAGYGPSPEMLARIAPGRGFNFSDGKQPLAMARKSLTEMADLLNLQSAAETHLAQYEDFIRSMKPRFVKRGARPLLLTTLIDPRHMLVFGPNSLFQEILDEYGIPNAWQGETNFWGSTAVSIDRLAAYKDVDVLCFDHDNSKDMDALMATPLWQAMPFVRAGRFQRVPAVWFYGATLSAMHFVRVLDNAIGGKA
notes: In 'FhuD-ferrichrome' the protein was loaded with the small molecule ferrichrome; also called FhuD-ferrichrome (when loaded with ferrichrome)
